Experimental findings from US20240018502A1 are described below.

In this assay the target is plasma purified human complement protein C3 (human) (UniProt P01024). Kind of assay: cell-based or functional assay.
plasma purified human complement protein C3 (human), sequence (P01024 23-667, chain 1 of 2): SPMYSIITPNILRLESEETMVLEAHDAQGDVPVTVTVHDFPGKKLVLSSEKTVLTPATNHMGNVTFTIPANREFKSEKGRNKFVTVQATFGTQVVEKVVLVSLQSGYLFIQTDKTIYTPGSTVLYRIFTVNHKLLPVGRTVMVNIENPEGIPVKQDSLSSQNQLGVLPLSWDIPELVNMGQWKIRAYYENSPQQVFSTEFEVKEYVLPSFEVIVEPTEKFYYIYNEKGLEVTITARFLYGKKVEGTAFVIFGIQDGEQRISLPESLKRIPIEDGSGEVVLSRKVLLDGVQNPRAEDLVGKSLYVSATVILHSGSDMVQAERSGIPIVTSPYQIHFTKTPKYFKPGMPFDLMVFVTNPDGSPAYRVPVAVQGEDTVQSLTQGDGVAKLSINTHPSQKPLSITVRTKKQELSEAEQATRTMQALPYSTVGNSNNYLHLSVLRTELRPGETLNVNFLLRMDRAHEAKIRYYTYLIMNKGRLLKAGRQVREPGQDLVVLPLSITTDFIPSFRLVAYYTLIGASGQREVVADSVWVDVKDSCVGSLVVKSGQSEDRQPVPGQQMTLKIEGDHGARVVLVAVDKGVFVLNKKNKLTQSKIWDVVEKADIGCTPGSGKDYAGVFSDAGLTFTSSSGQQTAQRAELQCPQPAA
plasma purified human complement protein C3 (human), sequence (P01024 672-1663, chain 2 of 2): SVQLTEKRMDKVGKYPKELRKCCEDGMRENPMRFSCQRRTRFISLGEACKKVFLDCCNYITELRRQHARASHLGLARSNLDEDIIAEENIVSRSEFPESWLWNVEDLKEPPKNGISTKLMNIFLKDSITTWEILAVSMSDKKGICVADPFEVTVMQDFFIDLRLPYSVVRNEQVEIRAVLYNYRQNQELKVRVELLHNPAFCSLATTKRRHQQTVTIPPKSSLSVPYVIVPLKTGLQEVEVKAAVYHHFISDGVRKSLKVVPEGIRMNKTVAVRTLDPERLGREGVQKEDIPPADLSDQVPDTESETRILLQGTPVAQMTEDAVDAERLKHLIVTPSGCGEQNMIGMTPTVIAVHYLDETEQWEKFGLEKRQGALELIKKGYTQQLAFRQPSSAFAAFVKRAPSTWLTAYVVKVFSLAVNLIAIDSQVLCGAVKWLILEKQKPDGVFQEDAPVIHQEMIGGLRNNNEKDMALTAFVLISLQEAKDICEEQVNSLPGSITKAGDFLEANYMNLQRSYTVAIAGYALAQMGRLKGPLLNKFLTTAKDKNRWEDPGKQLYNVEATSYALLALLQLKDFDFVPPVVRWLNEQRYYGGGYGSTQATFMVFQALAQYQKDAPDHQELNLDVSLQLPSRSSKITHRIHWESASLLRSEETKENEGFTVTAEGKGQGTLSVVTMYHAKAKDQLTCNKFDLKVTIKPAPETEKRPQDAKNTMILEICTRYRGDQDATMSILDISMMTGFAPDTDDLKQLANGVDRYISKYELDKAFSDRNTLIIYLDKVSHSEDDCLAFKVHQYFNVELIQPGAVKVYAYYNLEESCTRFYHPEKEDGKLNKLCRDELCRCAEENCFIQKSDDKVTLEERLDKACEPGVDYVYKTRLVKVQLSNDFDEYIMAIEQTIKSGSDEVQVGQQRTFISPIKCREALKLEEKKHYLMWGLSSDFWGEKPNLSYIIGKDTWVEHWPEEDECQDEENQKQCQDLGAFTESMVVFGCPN

B1: MTSP-1 protease domain Q38H/I41S/D60bT/F60eS/Y60gW/D96K/F97G/ins97aV/T98P/F99L/M117K/C122S/G151H/Q175L/Q192D (enzyme)
chain: VVGGTDADEGEWPWQVSLHALGHGHSCGASLISPNWLVSAAHCYIDTRGSRWSDPTQWTAFLGLHDQSQRSAPGVQERRLKRIISHPFFNKGVPLDYDIALLELEKPAEYSSKVRPISLPDASHVFPAGKAIWVTGWGHTQYGGTHALILQKGEIRVINQTTCENLLPQLITPRMMCVGFLSGGVDSCDGDSGGPLSSVEADGRIFQAGVVSWGDGCAQRNKPGVYTRLPLFRDWIKENTGV
As for B1, the EC50 hC3 cleavage was 4.75 nM.

B2: MTSP-1 protease domain Q38H/I41S/D60bT/F60eS/Y60gW/D96K/F97G/ins97aV/T98P/F99L/C122S/T150S/G151H/Q175L/Q192D/Q209L (enzyme)
chain: VVGGTDADEGEWPWQVSLHALGHGHSCGASLISPNWLVSAAHCYIDTRGSRWSDPTQWTAFLGLHDQSQRSAPGVQERRLKRIISHPFFNKGVPLDYDIALLELEKPAEYSSMVRPISLPDASHVFPAGKAIWVTGWGHTQYGGSHALILQKGEIRVINQTTCENLLPQLITPRMMCVGFLSGGVDSCDGDSGGPLSSVEADGRIFLAGVVSWGDGCAQRNKPGVYTRLPLFRDWIKENTGV
With B2, the EC50 hC3 cleavage is 2.88 nM.

B3: MTSP-1 protease domain L36Q/Q38H/I41S/D60bT/F60eS/Y60gW/D96K/F97G/ins97aV/T98P/F99L/C122S/G151H/Q175L/Q192D (enzyme)
chain: VVGGTDADEGEWPWQVSLHAQGHGHSCGASLISPNWLVSAAHCYIDTRGSRWSDPTQWTAFLGLHDQSQRSAPGVQERRLKRIISHPFFNKGVPLDYDIALLELEKPAEYSSMVRPISLPDASHVFPAGKAIWVTGWGHTQYGGTHALILQKGEIRVINQTTCENLLPQLITPRMMCVGFLSGGVDSCDGDSGGPLSSVEADGRIFQAGVVSWGDGCAQRNKPGVYTRLPLFRDWIKENTGV
Take B3: the EC50 hC3 cleavage worked out at 5.49 nM.

B4: MTSP-1 protease domain Q38H/I41S/D60bT/F60eS/Y60gW/D96K/F97G/ins97aA/T98P/F99L/C122S/G151H/Q175L/Q192D (enzyme)
chain: VVGGTDADEGEWPWQVSLHALGHGHSCGASLISPNWLVSAAHCYIDTRGSRWSDPTQWTAFLGLHDQSQRSAPGVQERRLKRIISHPFFNKGAPLDYDIALLELEKPAEYSSMVRPISLPDASHVFPAGKAIWVTGWGHTQYGGTHALILQKGEIRVINQTTCENLLPQLITPRMMCVGFLSGGVDSCDGDSGGPLSSVEADGRIFQAGVVSWGDGCAQRNKPGVYTRLPLFRDWIKENTGV
For the molecule B4, the EC50 hC3 cleavage came out at 1.43 nM.

B5: MTSP-1 Q38H/I41S/D60bT/F60eS/Y60gW/D96K/F97D/ins97aA/T98P/F99L/C122S/G151N/Q175L/Q192D (enzyme)
chain: VVGGTDADEGEWPWQVSLHALGHGHSCGASLISPNWLVSAAHCYIDTRGSRWSDPTQWTAFLGLHDQSQRSAPGVQERRLKRIISHPFFNKDAPLDYDIALLELEKPAEYSSMVRPISLPDASHVFPAGKAIWVTGWGHTQYGGTNALILQKGEIRVINQTTCENLLPQLITPRMMCVGFLSGGVDSCDGDSGGPLSSVEADGRIFQAGVVSWGDGCAQRNKPGVYTRLPLFRDWIKENTGV
Regarding B5, the EC50 of hC3 cleavage worked out at 5.92 nM.

B6: MTSP-1 Q38H/I41S/D60bT/F60eS/Y60gW/D96V/F97G/ins97aV/T98P/F99L/C122S/G151H/Q175L/Q192D (enzyme)
chain: VVGGTDADEGEWPWQVSLHALGHGHSCGASLISPNWLVSAAHCYIDTRGSRWSDPTQWTAFLGLHDQSQRSAPGVQERRLKRIISHPFFNVGVPLDYDIALLELEKPAEYSSMVRPISLPDASHVFPAGKAIWVTGWGHTQYGGTHALILQKGEIRVINQTTCENLLPQLITPRMMCVGFLSGGVDSCDGDSGGPLSSVEADGRIFQAGVVSWGDGCAQRNKPGVYTRLPLFRDWIKENTGV
For the molecule B6, the EC50 of hC3 cleavage amounted to 2.85 nM.

B7: MTSP-1 protease domain I41G/F97A/F99L/C122S/G151H/Q175L/Q192G/D217L (enzyme)
chain: VVGGTDADEGEWPWQVSLHALGQGHGCGASLISPNWLVSAAHCYIDDRGFRYSDPTQWTAFLGLHDQSQRSAPGVQERRLKRIISHPFFNDATLDYDIALLELEKPAEYSSMVRPISLPDASHVFPAGKAIWVTGWGHTQYGGTHALILQKGEIRVINQTTCENLLPQLITPRMMCVGFLSGGVDSCGGDSGGPLSSVEADGRIFQAGVVSWGLGCAQRNKPGVYTRLPLFRDWIKENTGV
B7 showed an EC50 hC3 cleavage of 47.8 nM.

B8: MTSP-1 protease domain I41G/F97S/F99L/C122S/G151T/Q175R/Q192A/D217Y (enzyme)
chain: VVGGTDADEGEWPWQVSLHALGQGHGCGASLISPNWLVSAAHCYIDDRGFRYSDPTQWTAFLGLHDQSQRSAPGVQERRLKRIISHPFFNDSTLDYDIALLELEKPAEYSSMVRPISLPDASHVFPAGKAIWVTGWGHTQYGGTTALILQKGEIRVINQTTCENLLPQRITPRMMCVGFLSGGVDSCAGDSGGPLSSVEADGRIFQAGVVSWGYGCAQRNKPGVYTRLPLFRDWIKENTGV
As to B8, the EC50 hC3 cleavage is 52.8 nM.

B9: MTSP-1 protease domain I41G/F97T/F99M/C122S/G151D/Q175T/Q192T/D217V (enzyme)
chain: VVGGTDADEGEWPWQVSLHALGQGHGCGASLISPNWLVSAAHCYIDDRGFRYSDPTQWTAFLGLHDQSQRSAPGVQERRLKRIISHPFFNDTTMDYDIALLELEKPAEYSSMVRPISLPDASHVFPAGKAIWVTGWGHTQYGGTDALILQKGEIRVINQTTCENLLPQTITPRMMCVGFLSGGVDSCTGDSGGPLSSVEADGRIFQAGVVSWGVGCAQRNKPGVYTRLPLFRDWIKENTGV
The molecule B9 returned an EC50 hC3 cleavage of 45.6 nM.

B10: MTSP-1 protease domain I41G/F97S/F99L/C122S/G151N/Q175I/Q192T/D217T (enzyme)
chain: VVGGTDADEGEWPWQVSLHALGQGHGCGASLISPNWLVSAAHCYIDDRGFRYSDPTQWTAFLGLHDQSQRSAPGVQERRLKRIISHPFFNDSTLDYDIALLELEKPAEYSSMVRPISLPDASHVFPAGKAIWVTGWGHTQYGGTNALILQKGEIRVINQTTCENLLPQIITPRMMCVGFLSGGVDSCTGDSGGPLSSVEADGRIFQAGVVSWGTGCAQRNKPGVYTRLPLFRDWIKENTGV
Turning to B10, the EC50 hC3 cleavage was determined as 84.4 nM.

B11: MTSP-1 protease domain F97S/F99L/C122S/G151N/Q175I/Q192T/D217T (enzyme)
chain: VVGGTDADEGEWPWQVSLHALGQGHICGASLISPNWLVSAAHCYIDDRGFRYSDPTQWTAFLGLHDQSQRSAPGVQERRLKRIISHPFFNDSTLDYDIALLELEKPAEYSSMVRPISLPDASHVFPAGKAIWVTGWGHTQYGGTNALILQKGEIRVINQTTCENLLPQIITPRMMCVGFLSGGVDSCTGDSGGPLSSVEADGRIFQAGVVSWGTGCAQRNKPGVYTRLPLFRDWIKENTGV
In turn, B11 showed an EC50 hC3 cleavage of 524 nM.

B12: MTSP-1 protease domain I41G/F97L/F99L/C122S/G151T/Q175M/Q192D/D217M (enzyme)
chain: VVGGTDADEGEWPWQVSLHALGQGHGCGASLISPNWLVSAAHCYIDDRGFRYSDPTQWTAFLGLHDQSQRSAPGVQERRLKRIISHPFFNDLTLDYDIALLELEKPAEYSSMVRPISLPDASHVFPAGKAIWVTGWGHTQYGGTTALILQKGEIRVINQTTCENLLPQMITPRMMCVGFLSGGVDSCDGDSGGPLSSVEADGRIFQAGVVSWGMGCAQRNKPGVYTRLPLFRDWIKENTGV
Take B12: the EC50 hC3 cleavage came out at 36.8 nM.

B13: MTSP-1 protease domain I41S/F97E/F99L/C122S/G151N/Q175G/Q192R/D217A (enzyme)
chain: VVGGTDADEGEWPWQVSLHALGQGHSCGASLISPNWLVSAAHCYIDDRGFRYSDPTQWTAFLGLHDQSQRSAPGVQERRLKRIISHPFFNDETLDYDIALLELEKPAEYSSMVRPISLPDASHVFPAGKAIWVTGWGHTQYGGTNALILQKGEIRVINQTTCENLLPQGITPRMMCVGFLSGGVDSCRGDSGGPLSSVEADGRIFQAGVVSWGAGCAQRNKPGVYTRLPLFRDWIKENTGV
As to B13, the EC50 hC3 cleavage was 74.3 nM.

B14: MTSP-1 protease domain I41G/F97S/F99L/C122S/Q175I/Q192T/D217T (enzyme)
chain: VVGGTDADEGEWPWQVSLHALGQGHGCGASLISPNWLVSAAHCYIDDRGFRYSDPTQWTAFLGLHDQSQRSAPGVQERRLKRIISHPFFNDSTLDYDIALLELEKPAEYSSMVRPISLPDASHVFPAGKAIWVTGWGHTQYGGTGALILQKGEIRVINQTTCENLLPQIITPRMMCVGFLSGGVDSCTGDSGGPLSSVEADGRIFQAGVVSWGTGCAQRNKPGVYTRLPLFRDWIKENTGV
In turn, B14 came in with an EC50 hC3 cleavage of 155 nM.

B15: MTSP-1 protease domain I41G/F97L/F99L/C122S/G151N/Q175A/Q192V/D217R (enzyme)
chain: VVGGTDADEGEWPWQVSLHALGQGHGCGASLISPNWLVSAAHCYIDDRGFRYSDPTQWTAFLGLHDQSQRSAPGVQERRLKRIISHPFFNDLTLDYDIALLELEKPAEYSSMVRPISLPDASHVFPAGKAIWVTGWGHTQYGGTNALILQKGEIRVINQTTCENLLPQAITPRMMCVGFLSGGVDSCVGDSGGPLSSVEADGRIFQAGVVSWGRGCAQRNKPGVYTRLPLFRDWIKENTGV
As for B15, the EC50 hC3 cleavage came out at 34 nM.

B16: MTSP-1 protease domain I41G/F97S/C122S/G151N/Q175I/Q192T/D217T (enzyme)
chain: VVGGTDADEGEWPWQVSLHALGQGHGCGASLISPNWLVSAAHCYIDDRGFRYSDPTQWTAFLGLHDQSQRSAPGVQERRLKRIISHPFFNDSTFDYDIALLELEKPAEYSSMVRPISLPDASHVFPAGKAIWVTGWGHTQYGGTNALILQKGEIRVINQTTCENLLPQIITPRMMCVGFLSGGVDSCTGDSGGPLSSVEADGRIFQAGVVSWGTGCAQRNKPGVYTRLPLFRDWIKENTGV
In turn, B16 registered an EC50 hC3 cleavage of 860 nM.

B17: MTSP-1 protease domain I41R/F97A/F99L/C122S/G151N/Q175R/Q192G/D217Q (enzyme)
chain: VVGGTDADEGEWPWQVSLHALGQGHRCGASLISPNWLVSAAHCYIDDRGFRYSDPTQWTAFLGLHDQSQRSAPGVQERRLKRIISHPFFNDATLDYDIALLELEKPAEYSSMVRPISLPDASHVFPAGKAIWVTGWGHTQYGGTNALILQKGEIRVINQTTCENLLPQRITPRMMCVGFLSGGVDSCGGDSGGPLSSVEADGRIFQAGVVSWGQGCAQRNKPGVYTRLPLFRDWIKENTGV
Molecule B17 yielded an EC50 hC3 cleavage of 401 nM.

B18: MTSP-1 protease domain I41G/F97S/F99L/C122S/G151N/Q175I/D217T (enzyme)
chain: VVGGTDADEGEWPWQVSLHALGQGHGCGASLISPNWLVSAAHCYIDDRGFRYSDPTQWTAFLGLHDQSQRSAPGVQERRLKRIISHPFFNDSTLDYDIALLELEKPAEYSSMVRPISLPDASHVFPAGKAIWVTGWGHTQYGGTNALILQKGEIRVINQTTCENLLPQIITPRMMCVGFLSGGVDSCQGDSGGPLSSVEADGRIFQAGVVSWGTGCAQRNKPGVYTRLPLFRDWIKENTGV
Molecule B18 displayed an EC50 hC3 cleavage of 107 nM.

B19: MTSP-1 protease domain I41G/F97S/F99L/C122S/G151N/Q192T/D217T (enzyme)
chain: VVGGTDADEGEWPWQVSLHALGQGHGCGASLISPNWLVSAAHCYIDDRGFRYSDPTQWTAFLGLHDQSQRSAPGVQERRLKRIISHPFFNDSTLDYDIALLELEKPAEYSSMVRPISLPDASHVFPAGKAIWVTGWGHTQYGGTNALILQKGEIRVINQTTCENLLPQQITPRMMCVGFLSGGVDSCTGDSGGPLSSVEADGRIFQAGVVSWGTGCAQRNKPGVYTRLPLFRDWIKENTGV
B19 returned an EC50 hC3 cleavage of 105 nM.

B20: MTSP-1 protease domain I41G/F99L/C122S/G151N/Q175I/Q192T/D217T (enzyme)
chain: VVGGTDADEGEWPWQVSLHALGQGHGCGASLISPNWLVSAAHCYIDDRGFRYSDPTQWTAFLGLHDQSQRSAPGVQERRLKRIISHPFFNDFTLDYDIALLELEKPAEYSSMVRPISLPDASHVFPAGKAIWVTGWGHTQYGGTNALILQKGEIRVINQTTCENLLPQIITPRMMCVGFLSGGVDSCTGDSGGPLSSVEADGRIFQAGVVSWGTGCAQRNKPGVYTRLPLFRDWIKENTGV
B20: the EC50 hC3 cleavage was found to be 108 nM.
